Data as given in US20150010566A1 (AIMM THERAPEUTICS B V, published 2015).

B1: AT10-004 (antibody, V domains shown)
VH: QVQLVQSGAEVRKPGASVKVSCKASGYTFTRHGISWVRQAPGQGLEWMGWISAYTGDTDYAQKFQGRVTMTTDTSTNTAYMELRSLRSDDAAVYYCARLRLQGEVVVPPSQSNWFDPWGQGTLVTVSS
VL: EIVLTQSPATLSLYPGERATLSCRASQSVSRYLAWYQQKPGQAPRLLIYDASNRATGIPARFSGSGSGTDFTLTISSLEPEDFAVYYCQQRSNWLKITFGQGTRLEIKG
B2: AT10-001 (antibody, V domains shown)
VH: EVQLLESGGGLVQPGGSLRLSCAASGFSFSTYAMSWVRQAPGKGLEWVSGISGSGESTYYADSVKGRFTVSRDNSKNTLYLQMNSLRAEDTAVYYCAKQGDHIAWLLRGINFDYWGQGVLVTVSS
VL: EIVLTQSPGTLSLSPGERATLSCRASQSVSSSYLAWYQQKPGQAPRLLIYGASTRATGIPDRFSGRGSGTDFTLTISSLEPEDFAVYYCQNYGSPFLFTFGPGTKVDIKR
B3: AT10-002 (antibody, V domains shown)
VH: QLQLQESGPRLVKPSETLSLTCSVSGVSISSSNYYWGWIRQPPGKGLEWIGTIYHSGSTYYNPSLKSRLIISVDTSKNQFYLQLTSLTAADSAVYYCATGGGFGWSQTYFGYWGQGTLVTASS
VL: QSALTQPASVSGSPGQSITISCTGTSSDVGAYNYVSWYQHHPGKAPKLMIYDVTYRPSGVSTRFSGSKSGNTASLTISGLQAEDEADYYCSSQSRSSTLVIFGGGTKLTVLG
B4: AT10-003 (antibody, V domains shown)
VH: QVHLVQSGAEVRKPGASVKVSCKVSGYTLNELSIHWLRQAPGRGLEWMGSFDPEDGETIYAQKFQGRVTMTGDTSTDTAYLELTSLRSEDTALYYCARGWGAVTSPFDFWGQGTLVTVSS
VL: DIVMTQSPLSLPVTPGEPASISCRSSQSLLHSNGHIYFDWYLQKPGQSPQLLIYLVSKRASGVPDRFSGSGSGTDFTLKISRVEAEDVGVYYCMQALETPFTFGPGTKVHIKR

Assays:
[1] = target: T1, H3 HA1 subunit (A/Aichi/2/1968, HA1 subunit, Met-1-Arg 345) (Influenza A virus H3N2 A/Aichi/2/1968, UniProt P03437 17-345); experiment: ELISA; antigen coated 1 µg/ml; recombinant antibody; set-up: concentration or dose not given beside the values
T1 construct: range 1-345; also called H3N2 A/Aichi/2/1968 HA1 subunit

[2] = target: T1, H3 HA1 subunit (A/Aichi/2/1968, HA1 …); experiment: ELISA; HA1 subunit coated 1 µg/ml; recombinant antibody

| Binder | OD 450 nm [1] [OD 450 nm] | binding result [2] |
| --- | --- | --- |
| B1 | 0.096 | no binding |
| B2 | 0.01 | no binding |
| B3 | -0.006 |  |
| B4 | 1.28 |  |
